The target of experiment [1] is T. thermophilus RNAP σ^A holoenzyme (T. thermophilus HB8) (UniProt Q5SHR6). As to the kind of experiment: SPR.
Experiment [2] concerns the target T. thermophilus RNAP core enzyme (T. thermophilus) (UniProt Q5SHR6). Description: SPR. In general terms: In SPR one partner is held on a chip, and binding of the other changes the refractive index at the surface.

This note sets out measurements from article PMC5758890.

As a reminder, the Kd is the concentration at which binding is half-saturated. Higher therefore signals weaker binding.

In the case of “Thermus thermophilus bacteriophage P23–45 gp76 (natural protein)”, the Kd in experiment [1] stood at 0.12 µM; in experiment [2], 8.4 µM.
